Article PMC4924701

Target: GADS (UniProt O75791)
Test: anti-FLAG co-IP, Western blot
Settings: reference: wild-type FLT3

Substance | binding against the reference (sites Y955,Y969) | binding against the reference (sites Y955)
FLT3 (from UniProt P36888) FLT3-Y955F-Y969F | lost | –
FLT3 (from UniProt P36888) FLT3-Y955F | – | weaker
